The values below come from US20180339041A1 (Kyowa Kirin, published 2018).

As a reminder, the Kd is the concentration at which binding is half-saturated. One may read the koff as a measure of how fast the partners let go of each other. What is called kon is a measure of how fast the partners come together.

For the assay, the target named is T1, C-terminally FLAG-tagged human Gas6 recombinant protein (hGas6-F) (human, UniProt Q14393 31-678, gamma-carboxylated glutamic acid residues in the Gla domain (producer cells co-express rat VKOR and human GGCX); positions not given).
T1 construct: also called human Gas6-F; human Gas6 protein
T1 sequence: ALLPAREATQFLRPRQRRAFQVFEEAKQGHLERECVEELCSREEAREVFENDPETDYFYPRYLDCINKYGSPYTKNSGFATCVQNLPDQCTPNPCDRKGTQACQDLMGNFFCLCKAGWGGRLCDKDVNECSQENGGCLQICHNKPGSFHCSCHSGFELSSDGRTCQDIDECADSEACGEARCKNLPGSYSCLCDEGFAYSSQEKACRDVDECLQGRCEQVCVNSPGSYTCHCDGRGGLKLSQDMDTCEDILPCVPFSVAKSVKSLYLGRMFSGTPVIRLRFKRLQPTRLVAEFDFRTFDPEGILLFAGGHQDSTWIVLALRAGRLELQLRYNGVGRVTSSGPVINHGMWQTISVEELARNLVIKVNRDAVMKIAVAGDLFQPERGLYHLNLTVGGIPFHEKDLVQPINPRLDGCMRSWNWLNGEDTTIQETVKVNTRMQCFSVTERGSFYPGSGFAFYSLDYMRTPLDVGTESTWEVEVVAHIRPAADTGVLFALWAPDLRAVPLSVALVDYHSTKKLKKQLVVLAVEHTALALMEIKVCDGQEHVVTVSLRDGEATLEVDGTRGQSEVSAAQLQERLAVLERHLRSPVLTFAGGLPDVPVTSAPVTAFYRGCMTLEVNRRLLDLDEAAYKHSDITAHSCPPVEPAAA
The assay can be described thus: SPR Biacore T100, captured antibody, Gas6 analyte, first test. On the procedure: An anti-human IgG antibody was immobilized on a CM5 sensor chip (manufactured by GE Healthcare Japan Corp.) using Human Antibody Capture Kit (manufactured by GE Healthcare Japan Corp.) according to the attached manual. Each test antibody adjusted to 1 μg/mL was added for 10 seconds at a flow rate of 10 μL/min to flow cells. […] The measurement was performed by the […] method. The obtained sensorgram was analyzed using Bia Evaluation Software (manufactured by GE Healthcare Japan Corp.), and the kinetic constant of each antibody was calculated.
In general terms: SPR reads the build-up and loss of mass on a sensor chip optically.

Residue numbers refer to the chain shown, from its start. Names and notes keep the numbering of the source.

B1: hzKM5320 LV5HV3a antibody (antibody, V domains shown)
VH: QVQLVQSGSELKKPGASVKVSCKASGYTFTNYGMNWVRQAPGQGLKWMGWINTETGEPTYSDDFKGRFVFSLDTSVSTAYLQISSLKAEDTATYFCAREDGYYGTLDYWGQGTTVTVSS
VL: DIVMTQSPDSLAVSLGERVTINCKASQSVSNDVAWYQQKPGQSPKVLIYYASNRYTGVPDRFSGSGSGTDFTFTISSVQAEDVAVYFCQQDYSSPWTFGQGTKLEIK
notes: Humanized; variant human IgG4 constant region (EU S228P, L235E, R409K), human kappa; also called A-21
Regarding B1, the Kd was below 2.3 nM, the koff is 0.000177 s⁻¹ and the kon is above 77100 M⁻¹ s⁻¹.

B2: hzKM5320 LV5HV8 antibody (antibody, V domains shown)
VH: B1 VH with V2I, S9P, V20I, R38K, S77T
VL: B1 VL
notes: Humanized; variant human IgG4 constant region (EU S228P, L235E, R409K), human kappa; also called A-16
For B2, the Kd was below 2.11 nM, the off-rate constant (koff) came to 0.000155 s⁻¹ and the kon was above 73600 M⁻¹ s⁻¹.

B3: hzKM5320 LV3HV8 antibody (antibody, V domains shown)
VH: B1 VH with V2I, S9P, V20I, R38K, S77T
VL: B1 VL with I2V, V78L
notes: Humanized; variant human IgG4 constant region (EU S228P, L235E, R409K), human kappa; also called A-15
In the case of B3, the Kd was below 2.3 nM, the koff stood at 0.000174 s⁻¹ and the association rate constant (kon) was above 75600 M⁻¹ s⁻¹.

B4: hzKM5320 LV5HV4 antibody (antibody, V domains shown)
VH: B1 VH with S9P
VL: B1 VL
notes: Humanized; variant human IgG4 constant region (EU S228P, L235E, R409K), human kappa; also called A-24
As for B4, the Kd was below 2.19 nM, the koff came to 0.000173 s⁻¹ and the on-rate constant (kon) is above 79200 M⁻¹ s⁻¹.

B5: hzKM5320 LV5HV6 antibody (antibody, V domains shown)
VH: B1 VH with S9P, V20I, R38K
VL: B1 VL
notes: Humanized; variant human IgG4 constant region (EU S228P, L235E, R409K), human kappa; also called A-25
Take B5: the dissociation constant (Kd) is below 1.8 nM, the koff came out at 0.000147 s⁻¹ and the kon was above 81700 M⁻¹ s⁻¹.

B6: hzKM5320 LV3HV0 antibody (antibody, V domains shown)
VH: B1 VH with K46E, T93V, F95Y
VL: B1 VL with I2V, V78L
notes: Humanized; variant human IgG4 constant region (EU S228P, L235E, R409K), human kappa; also called A-07
Turning to B6, the equilibrium dissociation constant (Kd) was below 2.91 nM, the off-rate constant (koff) is 0.000209 s⁻¹ and the kon is above 71900 M⁻¹ s⁻¹.

B7: hzKM5320 LV2bHV0 antibody (antibody, V domains shown)
VH: B1 VH with K46E, T93V, F95Y
VL: B1 VL with I2V, L15A, V46L, V78L, F87Y
notes: Humanized; variant human IgG4 constant region (EU S228P, L235E, R409K), human kappa; also called A-06
Regarding B7, the Kd was below 14.4 nM, the koff is 0.00104 s⁻¹ and the on-rate (kon) was above 72600 M⁻¹ s⁻¹.

B8: hzKM5320 LV1aHV8 antibody (antibody, V domains shown)
VH: B1 VH with V2I, S9P, V20I, R38K, S77T
VL: B1 VL with I2V, V46L, F73L, V78L
notes: Humanized; variant human IgG4 constant region (EU S228P, L235E, R409K), human kappa; also called A-11
For B8, the Kd is below 9.64 nM, the koff came to 0.000694 s⁻¹ and the kon was above 72000 M⁻¹ s⁻¹.

B9: hzKM5320 LV2aHV8 antibody (antibody, V domains shown)
VH: B1 VH with V2I, S9P, V20I, R38K, S77T
VL: B1 VL with I2V, V46L, F73L
notes: Humanized; variant human IgG4 constant region (EU S228P, L235E, R409K), human kappa; also called A-13
For B9, the Kd is below 10.2 nM, the off-rate (koff) was found to be 0.0008 s⁻¹ and the kon was above 78600 M⁻¹ s⁻¹.

B10: hzKM5320 LV5HV3c antibody (antibody, V domains shown)
VH: B1 VH with S9P, R38K, T93V, F95Y
VL: B1 VL
notes: Humanized; variant human IgG4 constant region (EU S228P, L235E, R409K), human kappa; also called A-23
In the case of B10, the equilibrium dissociation constant (Kd) was below 1.79 nM, the koff is 0.00014 s⁻¹ and the on-rate (kon) is above 77900 M⁻¹ s⁻¹.

B11: hzKM5320 LV6HV0 antibody (antibody, V domains shown)
VH: B1 VH with K46E, T93V, F95Y
VL: B1 VL with L15A
notes: Humanized; variant human IgG4 constant region (EU S228P, L235E, R409K), human kappa; also called A-09
In the case of B11, the Kd is below 3.22 nM, the koff turned out to be 0.000216 s⁻¹ and the kon is above 67200 M⁻¹ s⁻¹.

B12: hzKM5320 LV1aHV0 antibody (antibody, V domains shown)
VH: B1 VH with K46E, T93V, F95Y
VL: B1 VL with I2V, V46L, F73L, V78L
notes: Humanized; variant human IgG4 constant region (EU S228P, L235E, R409K), human kappa; also called A-03
With B12, the Kd was below 12.6 nM, the dissociation rate constant (koff) was determined as 0.000829 s⁻¹ and the kon is above 65700 M⁻¹ s⁻¹.

B13: hzKM5320 LV5HV1 antibody (antibody, V domains shown)
VH: B1 VH with T93V, F95Y
VL: B1 VL
notes: Humanized; variant human IgG4 constant region (EU S228P, L235E, R409K), human kappa; also called A-19
As to B13, the Kd was below 2.48 nM, the koff is 0.000184 s⁻¹ and the on-rate constant (kon) is above 74100 M⁻¹ s⁻¹.

B14: hzKM5320 LV5HV0 antibody (antibody, V domains shown)
VH: B1 VH with K46E, T93V, F95Y
VL: B1 VL
notes: Humanized; variant human IgG4 constant region (EU S228P, L235E, R409K), human kappa; also called A-08
With B14, the Kd is below 2.85 nM, the off-rate (koff) came to 0.00019 s⁻¹ and the kon was above 66700 M⁻¹ s⁻¹.

B15: hzKM5320 LV0HV8 antibody (antibody, V domains shown)
VH: B1 VH with V2I, S9P, V20I, R38K, S77T
VL: B1 VL with I2V, V46L, F73L, V78L, F87Y
notes: Humanized; variant human IgG4 constant region (EU S228P, L235E, R409K), human kappa; also called A-10
With B15, the dissociation constant Kd is below 9.79 nM, the dissociation rate constant (koff) stood at 0.000714 s⁻¹ and the kon was above 72900 M⁻¹ s⁻¹.

B16: hzKM5320 LV2bHV8 antibody (antibody, V domains shown)
VH: B1 VH with V2I, S9P, V20I, R38K, S77T
VL: B1 VL with I2V, L15A, V46L, V78L, F87Y
notes: Humanized; variant human IgG4 constant region (EU S228P, L235E, R409K), human kappa; also called A-14
With B16, the dissociation constant Kd was below 9.77 nM, the koff amounted to 0.000791 s⁻¹ and the association rate constant (kon) was above 81000 M⁻¹ s⁻¹.

B17: hzKM5320 LV5HV3b antibody (antibody, V domains shown)
VH: B1 VH with V2I, V20I, K46E, T93V
VL: B1 VL
notes: Humanized; variant human IgG4 constant region (EU S228P, L235E, R409K), human kappa; also called A-22
Consider B17, for which the dissociation constant Kd was below 2.01 nM, the koff worked out at 0.000153 s⁻¹ and the on-rate (kon) is above 76300 M⁻¹ s⁻¹.

B18: hzKM5320 LV1bHV8 antibody (antibody, V domains shown)
VH: B1 VH with V2I, S9P, V20I, R38K, S77T
VL: B1 VL with I2V, V46L, F73L, F87Y
notes: Humanized; variant human IgG4 constant region (EU S228P, L235E, R409K), human kappa; also called A-12
As for B18, the Kd was below 11 nM, the dissociation rate constant (koff) was 0.000856 s⁻¹ and the kon was above 77900 M⁻¹ s⁻¹.

B19: hzKM5320 LV2aHV0 antibody (antibody, V domains shown)
VH: B1 VH with K46E, T93V, F95Y
VL: B1 VL with I2V, V46L, F73L
notes: Humanized; variant human IgG4 constant region (EU S228P, L235E, R409K), human kappa; also called A-05
Turning to B19, the equilibrium dissociation constant (Kd) is below 15.2 nM, the off-rate constant (koff) was 0.00105 s⁻¹ and the kon is above 69100 M⁻¹ s⁻¹.

B20: hzKM5320 LV6HV8 antibody (antibody, V domains shown)
VH: B1 VH with V2I, S9P, V20I, R38K, S77T
VL: B1 VL with L15A
notes: Humanized; variant human IgG4 constant region (EU S228P, L235E, R409K), human kappa; also called A-17
As to B20, the equilibrium dissociation constant (Kd) was below 2.18 nM, the koff was found to be 0.000158 s⁻¹ and the kon was above 72500 M⁻¹ s⁻¹.

B21: hzKM5321 LV6HV1 antibody (antibody, V domains shown)
VH: QVHLVQSGSELKKPGASVKISCKASGYTFTNYGMNWVRQAPGQGLKWMGWINTNTGEPTYTEEFKGRFVFSLDTSVTTSYLQISTLKAEDTAVYFCARDEGWFVYWGQGTLVTVSS
VL: ETTLTQSPSSLSVSTGDRVTITCITSTDIDDDMNWYQQKPGKPPKLLISEGNTLRPGVPSRFSSSGSGTDFTLTISSTQPEDFADYYCLQTDSVPLTFGQGTKVEIK
notes: Humanized; variant human IgG4 constant region (EU S228P, L235E, R409K), human kappa; also called B-22; LV6HV1
In the case of B21, the equilibrium dissociation constant (Kd) is below 2.35 nM, the koff was determined as 0.000239 s⁻¹ and the on-rate constant (kon) is above 102000 M⁻¹ s⁻¹.

B22: hzKM5321 LV0HV7 antibody (antibody, V domains shown)
VH: B21 VH with V2I, S9P, R38K, S79A, V93T, V112I
VL: B21 VL with V13A, T15V, P43A, S64G, T78L, D85T
notes: Humanized; variant human IgG4 constant region (EU S228P, L235E, R409K), human kappa; also called B-12; LV0HV7
In the case of B22, the dissociation constant Kd was below 6.74 nM, the koff came out at 0.000672 s⁻¹ and the kon was above 100000 M⁻¹ s⁻¹.

B23: hzKM5321 LV1aHV0 antibody (antibody, V domains shown)
VH: B21 VH with K46E
VL: B21 VL with V13A, T15V, S64G, T78L, D85T
notes: Humanized; variant human IgG4 constant region (EU S228P, L235E, R409K), human kappa; also called B-03; LV1aHV0
As to B23, the dissociation constant Kd was below 3.92 nM, the koff was 0.000492 s⁻¹ and the on-rate (kon) is above 126000 M⁻¹ s⁻¹.
